Measurements: patent publication US20190309074A1, “DEGLYCOSYLATED ANTIBODY SPECIFICALLY BINDING TO CLEC14A AND USES THEREOF” (WOORI TECHNOLOGIES CORPORATION, priority 2016, published 2019)
Changes are numbered by the printed parent chain.

Assays:
[1] = system: VEGF-dependent blood vessel growth in rat aorta; experiment: ex vivo rat aortic ring assay; conditions: cultured in combination with VEGF
Procedure: In order to further investigate effects of deglyco C1 IgG on VEGF-dependent angiogenesis, ex vivo rat aortic ring assay was conducted in the presence or absence of deglyco C1 IgG and bevacizumab. Blood vessels were almost not grown in the rat aorta in endothelial basal medium (EBM), whereas most blood vessels were grown in the rat aorta under VEGF expression conditions.

[2] = system: VEGF-dependent microvessel formation; experiment: mouse Matrigel plug assay, VEGF-dependent microvessel formation; format: in vivo
Procedure: In order to observe in vivo efficacies of deglyco C1 IgG on VEGF-dependent angiogenesis, a mouse Matrigel model was established, hemoglobin level was measured as a marker of microvessel formation, and inhibitory activities against microvessel formation of deglyco C1 IgG and bevacizumab were compared by a mouse Matrigel plug assay.

[3] = system: CFPAC-1 cells; experiment: tumor cell-derived Matrigel plug angiogenesis assay; format: in vivo, mouse; conditions: single dose of 10 mg/kg, 2 weeks, nude mice
Procedure: (§1) In order to investigate in vivo effects of deglyco C1 IgG on tumor angiogenesis, tumor cell-derived Matrigel plug angiogenesis assay was conducted on thymus-removed nude mice. SNU182- and CFPAC-1 cells and U87 human glioma cells containing Matrigel were transplanted into thymus-removed nude mice in the presence of deglyco C1 IgG and bevacizumab with a single dose of 10 mg/kg or in the absence thereof. 2 weeks later, the Matrigel plug was removed and the total hemoglobulin content of each group was measured with an ELISA reader.

[4] = system: SNU182 cells; experiment: as above; format: in vivo, mouse; conditions: single dose of 10 mg/kg, 2 weeks, nude mice
Procedure: as §1

[5] = system: U87 human glioma cells; experiment: as above; format: in vivo, mouse; conditions: single dose of 10 mg/kg, 2 weeks, nude mice
Procedure: as §1

[6] = system: U87 human glioma; experiment: U87 tumor growth; format: in vivo; conditions: measured weekly for one month
[7] = system: HCT116 human colorectal cancer cells; experiment: Matrigel plug angiogenesis assay, CD31 microvessel density; format: in vivo; conditions: single dose of 5 mg/kg, 14 days
Procedure: (§2) Matrigel plug angiogenesis assay was conducted in the presence of deglyco C1 IgG or bevacizumab with a single dose of 5 mg/kg or the absence thereof using HCT116 human colorectal cancer cells and bevacizumab-applied HCT116 human colorectal cancer cells (HCT116 and HCT116/Beva). 14 days later, the Matrigel plug was removed, and immunohistochemistry was conducted on CD31 and microvascular markers. A microvessel density was measured by quantifying CD31 positive per field in an image each obtained by a confocal microscope.

[8] = system: HCT116/Beva cells; experiment: as above; format: in vivo; conditions: single dose of 5 mg/kg, 14 days
Procedure: as §2

[9] = system: HUVECs; experiment: HUVEC viability (cell counting Kit-8); format: cell-based, human; conditions: 2 days
Procedure: In order to evaluate effects of deglyco C1 IgG on toxicity of endothelial cells, after treatment with deglyco C1 IgG, viability of HUVECs was measured. Viability was measured in accordance with the manufacturer's manual through cell counting Kit-8 (#CK04-13, Dojindo Laboratories, Kumamoto, Japan).

[10] = biological target: T1, human CLEC14a on human umbilical vein endothelial cells (HUVECs) (human, UniProt Q86T13 22-490); experiment: cell ELISA on HUVECs coated on the plate
T1 construct: whole, on cells; also called CLEC14a on HUVEC surfaces
T1 sequence (looked up): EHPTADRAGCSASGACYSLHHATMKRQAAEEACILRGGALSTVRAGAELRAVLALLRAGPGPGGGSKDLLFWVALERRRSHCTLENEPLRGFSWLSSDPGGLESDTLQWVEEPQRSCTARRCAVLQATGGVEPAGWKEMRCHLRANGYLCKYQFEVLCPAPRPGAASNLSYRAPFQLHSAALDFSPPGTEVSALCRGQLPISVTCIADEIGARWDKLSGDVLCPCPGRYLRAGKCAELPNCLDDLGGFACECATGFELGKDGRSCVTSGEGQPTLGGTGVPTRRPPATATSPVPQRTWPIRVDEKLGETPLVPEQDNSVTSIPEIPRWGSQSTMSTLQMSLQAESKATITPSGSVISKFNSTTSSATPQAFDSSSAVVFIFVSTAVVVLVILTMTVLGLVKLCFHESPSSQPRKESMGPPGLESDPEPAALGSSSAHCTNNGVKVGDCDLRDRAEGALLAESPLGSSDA
Procedure: In order to analyze action mechanisms of deglyco C1 IgG at a molecule-scale, specifically, in angiogenesis, HUVECs were treated with hclec14a-CTLD-Fc-HRP (HRP-labeled hclec14a-CTLD-Fc) in the absence or presence of an increasing concentration of parent antibody IgG or deglyco C1 IgG.

[11] = biological target: T2, hclec14a-ECD-myc (human, UniProt Q86T13 22-397); experiment: ELISA, hclec14a-CTLD-Fc-HRP with hclec14a-ECD
T2 construct: extracellular domain; Purified protein; also called extracellular domain of human clec14a; not shown: myc tag
T2 sequence (looked up): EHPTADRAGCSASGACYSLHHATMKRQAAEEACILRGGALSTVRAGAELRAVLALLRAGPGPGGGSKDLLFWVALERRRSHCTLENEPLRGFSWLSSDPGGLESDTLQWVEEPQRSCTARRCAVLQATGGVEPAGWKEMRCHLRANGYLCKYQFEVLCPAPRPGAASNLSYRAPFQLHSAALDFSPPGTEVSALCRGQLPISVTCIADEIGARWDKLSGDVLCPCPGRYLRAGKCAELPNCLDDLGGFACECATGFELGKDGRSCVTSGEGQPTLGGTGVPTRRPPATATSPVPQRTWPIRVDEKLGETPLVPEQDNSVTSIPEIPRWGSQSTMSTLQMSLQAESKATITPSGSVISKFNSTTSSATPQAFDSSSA
Procedure: In addition, hclec14a-CTLD-Fc-HRP was incubated together with purified hclec14a-ECD in the presence of an increasing concentration of parent antibody IgG or deglyco C1 IgG, or in the absence thereof.

[12] = biological target: T3, mouse CLEC14a on mouse aortic endothelial cells (MAECs) (mouse, UniProt Q8VCP9 22-459); experiment: flow cytometry on MAEC
T3 construct: whole, on cells
T3 sequence (looked up): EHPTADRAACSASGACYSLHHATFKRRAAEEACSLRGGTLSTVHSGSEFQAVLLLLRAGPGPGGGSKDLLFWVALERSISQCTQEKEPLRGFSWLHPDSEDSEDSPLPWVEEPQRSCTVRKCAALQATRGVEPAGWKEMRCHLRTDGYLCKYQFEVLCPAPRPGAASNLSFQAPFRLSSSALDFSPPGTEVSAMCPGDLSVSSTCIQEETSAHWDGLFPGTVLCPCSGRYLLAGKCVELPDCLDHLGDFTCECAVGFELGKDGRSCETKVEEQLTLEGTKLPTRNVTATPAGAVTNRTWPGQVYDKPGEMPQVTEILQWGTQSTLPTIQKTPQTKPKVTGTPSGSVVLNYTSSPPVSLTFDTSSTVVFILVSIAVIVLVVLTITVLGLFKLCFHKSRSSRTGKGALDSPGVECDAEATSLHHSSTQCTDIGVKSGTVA
Procedure: (§3) In order to identify cross-species reactivity of the optimized antibodies, HUVECs (human umbilical vein endothelial cells) and MAECs (mouse aortic endothelial cells) were each cultured, the two cell groups were treated with 20 ug/ml of the parent antibody (original C1), deglyco C1, and clones 1, 13 and 16, and whether or not binding ability exists on the surface of two types of cells was identified by flow cytometry.

[13] = biological target: T1, human CLEC14a on human umbilical vein …; experiment: flow cytometry on HUVEC
Procedure: as §3

[14] = system: GFP-transfected HUVECs; experiment: IncuCyte real-time VEGF-dependent angiogenesis assay; format: cell-based, human
Procedure: In order to identify inhibitory activity of optimized candidate antibodies against angiogenesis dependent upon VEGF, which is a key factor of angiogenesis, anti-angiogenesis activity was comparatively analyzed using an IncuCyte FLR live content imaging system (Essen Bioscience Inc.) providing real-time analysis of angiogenesis. First, GFP-transfected HUVECs were seeded on a […] plate, were treated with 36 types of antibodies at a concentration of 20 ug/ml and in vitro efficacy was then compared. At this time, optimized antibodies were comparatively analyzed in terms of efficacy with parental IgG (parent antibody: clone 1 of WO 2013/187556), deglyco C1 and bevacizumab (Avastin) as positive control groups.

[15] = system: HUVEC cells; experiment: EGM-dependent HUVEC tube formation; format: cell-based, human; conditions: 20 ug/ml
From the text: EGM is a type of complex including a variety of angiogenesis factors, which has been used to induce strong angiogenesis using vascular endothelial cells.

[16] = system: HUVEC migration; experiment: IncuCyte HUVEC migration assay; format: cell-based, human; conditions: 20 ug/ml
Procedure: In order to analyze in vitro efficacies of the optimized candidate antibodies on endothelial migration, which is another function of angiogenesis, HUVEC migration assay was conducted using an IncuCyte FLR live content imaging system (Essen Bioscience Inc). At this time, regarding a wound, a uniform wound was created using a wound maker commercially available from Incucyte and was treated with 20 ug/ml of respective antibodies, and inhibitory activity against migration was comparatively evaluated.

[17] = system: HUVECs (human umbilical vein endothelial cells); experiment: flow cytometry cross-species reactivity; format: cell-based; conditions: 20 ug/ml
Procedure: as §3

[18] = system: MAECs (mouse aortic endothelial cells); experiment: flow cytometry cross-species reactivity; format: cell-based; conditions: 20 ug/ml
Procedure: as §3

[19] = biological target: T2, hclec14a-ECD-myc; experiment: biolayer interferometry, Octet RED96
[20] = biological target: T4, mclec14a-CTLD-Fc (mouse, UniProt Q8VCP9 31-172, limits assumed); experiment: ELISA on mclec14a-CTLD-Fc
T4 construct: domain: C-type lectin-like domain (CTLD); also called mouse clec14a-CTLD-Fc; mouse CTLD; not shown: Fc
T4 sequence (looked up): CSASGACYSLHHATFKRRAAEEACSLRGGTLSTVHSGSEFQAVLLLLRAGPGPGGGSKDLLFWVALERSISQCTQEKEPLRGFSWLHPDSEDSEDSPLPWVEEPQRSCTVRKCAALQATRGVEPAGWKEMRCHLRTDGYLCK

[21] = biological target: T2, hclec14a-ECD-myc; experiment: biolayer interferometry (Octet RED96), curves at 62.5, 31.25, 15.625 and 7.8125 nM

bevacizumab [reference compound]
number of blood vessels grown in the rat aorta [1]: reduced the number of blood vessels grown in the rat aorta | hemoglobin content (microvessel formation) [2]: significantly reduced a hemoglobin content | hemoglobin content, CFPAC-1-derived [3]: significantly reduced hemoglobin | hemoglobin content, SNU182-derived [4]: significantly reduced hemoglobin | hemoglobin content, U87-derived [5]: significantly reduced hemoglobin | tumor size of U87 cells [6]: significantly reduces the tumor sizes | microvessel formation (CD31 positive per field), HCT116 [7]: significantly reduced microvessel formation ability | microvessel formation (CD31 positive per field), HCT116/Beva [8]: not suppressed

O=c1[nH]cc(F)c(=O)[nH]1 [Opti 5-FU, 5-fluorouracil, reference compound]
viability of HUVECs [9]: significantly reduced viability

B1: hclec14a-CTLD-Fc (Fc fusion, human, UniProt Q86T13 31-172, looked up)
chain: CSASGACYSLHHATMKRQAAEEACILRGGALSTVRAGAELRAVLALLRAGPGPGGGSKDLLFWVALERRRSHCTLENEPLRGFSWLSSDPGGLESDTLQWVEEPQRSCTARRCAVLQATGGVEPAGWKEMRCHLRANGYLCK
notes: domain: C-type lectin-like domain (CTLD); also called human clec14a-CTLD-Fc; human CTLD; not shown: Fc
binding result [10]: binds | binding result [11]: binds

B2: Opti 13 (antibody, V domains shown)
VH: EVQLVESGGGLVQPGGSLRLSCAVSGFTFSGYDMSWIRQAPGKGLEWVAGIYPDGGNTYYADSVKGRFTISRDDSKNTFYLQMNSLRAEDTAVYYCARGAMEQVLGPFDLWGQGTLVTVSS
VL: DIQLTQSPSSLSASVGDRVTITCTGSSSNIGRCGVTWYQQKPGKAPKLLIYADSHRPSGVPSRFSGSGSGTDFTLTISSLQPEDFATYYCGAWDDSLSGYVFGQGTKVEIKR
notes: IgG from HEK293 cells; also called clone 13; optimized antibody clone 13
binding result [12]: binds | binding result [13]: binds

B3: Opti 16: IgG, heavy chain CDR3 GARRQVLGCFDF (SEQ ID No: 40), VL of Deg C1 (antibody, V domains shown)
VH: B2 VH with M101R, E102R, P107C, L110F
VL: B2 VL
anti-angiogenesis activity (tube length and branch point) ([14]; 20 ug/ml): potent efficacy | changes in tube length (progression of angiogenesis) ([14]; representative images): same efficacy as Suramin and Avastin | suppression of EGM-dependent tube formation [15]: efficiently suppressing angiogenesis | endothelial migration inhibitory activity [16]: same endothelial migration inhibitory activity as parent antibody (original C1), deglyco C1 IgG, and Avastin | binding to HUVEC surface [17]: had cross-species reactivity | binding to MAEC surface [18]: had cross-species reactivity

B4: Opti 1 (antibody, V domains shown)
VH: B2 VH with M101A, E102T, Q103K, P107K, L110C
VL: B2 VL
notes: IgG from HEK293 cells; also called optimized antibody clone 1
binding result [12]: binds | binding result [13]: binds

B5: deglyco C1 IgG (antibody, V domains shown)
VH: B2 VH with M101T, E102W, Q103W, L110Y
VL: B2 VL
notes: IgG expressed in HEK293 cells; In some assays conjugated with HRP; also called Deg C1; deglyco C1 IgG-HRP (HRP-conjugated form)
binding result [12]: binds | Kd [19]: 6 nM | binding result [20]: binds | Kd [21]: 6.07 nM | koff [21]: 0.000297 s⁻¹ | kon [21]: 49000 M⁻¹ s⁻¹
